Test results published in publication PMC5608322, “Spontaneous non-canonical assembly of CcmK hexameric components from β-carboxysome shells of cyanobacteria” (PLoS ONE, 2017).

Biological target: the molecule itself
Test: AFM imaging; purified protein adsorbed on freshly cleaved mica, imaged in buffer in contact mode at ambient temperature; 10 mM NaPi, MES or Tris, 300 mM NaCl, pH 5.0 to 8.0, some with 0.5 mM additives; hexamers tiling into 2D assemblies

Protein | binding result
NIR K2^-TH: triple mutant of CcmK2 Syn6803 with A63 A64 N65 replaced by NIR of CcmK1 (natural protein, Synechocystis sp. PCC6803, UniProt P72761 1-103, looked up, CcmK2, Synechocystis sp; PCC6803, as K2^-TH with residues 63-65 AAN replaced by NIR; TEV site between protein and tag as in K2^-TH; also called N^63IR K2^-TH 6803; source: E. coli BL21 (DE3), purified (TALON cobalt IMAC); not shown: His4, C-terminal, kept) MSIAVGMIETRGFPAVVEAADSMVKAARVTLVGYEKIGSGRVTVIVRGDVSEVQASVSAGIENIRRVNGGEVLSTHIIARPHENLEYVLPIRYTEEVEQFRTY | binds
R28A/R80A double mutant of K1^-TH (CcmK1 Syn6803) (natural protein, Synechocystis sp. PCC6803, UniProt P72760 1-111, looked up, CcmK1, Synechocystis sp; PCC6803, as K1^-TH with R28A and R80A; TEV site between protein and tag as in K1^-TH; source: E. coli BL21 (DE3), purified (TALON cobalt IMAC); not shown: His4, C-terminal, kept) MSIAVGMIETLGFPAVVEAADSMVKAAAVTLVGYEKIGSGRVTVIVRGDVSEVQASVTAGIENIRRVNGGEVLSNHIIAAPHENLEYVLPIRYTEAVEQFREIVNPSIIRR | binds
R28A mutant of K1^-TH (CcmK1 Syn6803) (natural protein, Synechocystis sp. PCC6803, UniProt P72760 1-111, looked up, CcmK1, Synechocystis sp; PCC6803, as K1^-TH with R28A; TEV site between protein and tag as in K1^-TH; source: E. coli BL21 (DE3), purified (TALON cobalt IMAC); not shown: His4, C-terminal, kept) MSIAVGMIETLGFPAVVEAADSMVKAAAVTLVGYEKIGSGRVTVIVRGDVSEVQASVTAGIENIRRVNGGEVLSNHIIARPHENLEYVLPIRYTEAVEQFREIVNPSIIRR | binds
R80A mutant of K1^-TH (CcmK1 Syn6803) (natural protein, Synechocystis sp. PCC6803, UniProt P72760 1-111, looked up, CcmK1, Synechocystis sp; PCC6803, as K1^-TH with R80A; TEV site between protein and tag as in K1^-TH; source: E. coli BL21 (DE3), purified (TALON cobalt IMAC); not shown: His4, C-terminal, kept) MSIAVGMIETLGFPAVVEAADSMVKAARVTLVGYEKIGSGRVTVIVRGDVSEVQASVTAGIENIRRVNGGEVLSNHIIAAPHENLEYVLPIRYTEAVEQFREIVNPSIIRR | binds
AAN K1^-TH: triple mutant of CcmK1 Syn6803 with N63 I64 R65 replaced by AAN of CcmK2 (natural protein, Synechocystis sp. PCC6803, UniProt P72760 1-111, looked up, CcmK1, Synechocystis sp; PCC6803, as K1^-TH with residues 63-65 NIR replaced by AAN; TEV site between protein and tag as in K1^-TH; also called A^63AN K1^-TH 6803; source: E. coli BL21 (DE3), purified (TALON cobalt IMAC); not shown: His4, C-terminal, kept) MSIAVGMIETLGFPAVVEAADSMVKAARVTLVGYEKIGSGRVTVIVRGDVSEVQASVTAGIEAANRVNGGEVLSNHIIARPHENLEYVLPIRYTEAVEQFREIVNPSIIRR | binds
D49A mutant of K1^-TH (CcmK1 Syn6803) (natural protein, Synechocystis sp. PCC6803, UniProt P72760 1-111, looked up, CcmK1, Synechocystis sp; PCC6803, as K1^-TH with D49A; TEV site between protein and tag as in K1^-TH; source: E. coli BL21 (DE3), purified (TALON cobalt IMAC); not shown: His4, C-terminal, kept) MSIAVGMIETLGFPAVVEAADSMVKAARVTLVGYEKIGSGRVTVIVRGAVSEVQASVTAGIENIRRVNGGEVLSNHIIARPHENLEYVLPIRYTEAVEQFREIVNPSIIRR | binds

Biological target: the molecule itself
Test: SEC; Beckman Ultraspherogel SEC2000 column, 20 mM Tris-HCl, 300 mM NaCl, pH 7; size by comparison with calibration standards; oligomer of the protein with itself

Protein | stoichiometry N
CcmK4 from Synechocystis sp. PCC6803 with N-terminal His4 tag and TEV site (^HT-K4) (natural protein, UniProt P73407 1-112, looked up, CcmK4, Synechocystis sp; PCC6803, full-length gene, codon-optimized for E. coli; A TEV site stands between tag and protein; source: E. coli BL21 (DE3), purified (TALON cobalt IMAC); not shown: His4, N-terminal, kept) MSAQSAVGSIETIGFPGILAAADAMVKAGRITIVGYIRAGSARFTLNIRGDVQEVKTAMAAGIDAINRTEGADVKTWVIIPRPHENVVAVLPIDFSPEVEPFREAAEGLNRR | 6
CcmK4 from Synechocystis sp. PCC6803 with C-terminal TEV site and His4 tag (K4^-TH) (natural protein, UniProt P73407 1-112, looked up, CcmK4, Synechocystis sp; PCC6803, full-length gene, codon-optimized for E. coli; source: E. coli BL21 (DE3), purified (TALON cobalt IMAC); not shown: His4, C-terminal, kept) MSAQSAVGSIETIGFPGILAAADAMVKAGRITIVGYIRAGSARFTLNIRGDVQEVKTAMAAGIDAINRTEGADVKTWVIIPRPHENVVAVLPIDFSPEVEPFREAAEGLNRR | 6
CcmK1 from Synechocystis sp. PCC6803 with C-terminal TEV site and His4 tag (K1^-TH) (natural protein, UniProt P72760 1-111, looked up, CcmK1, Synechocystis sp; PCC6803, full-length gene, codon-optimized for E. coli; A TEV protease recognition site stands between protein and His4 tag; also called K1^-TH 6803; CcmK1 Syn6803; source: E. coli BL21 (DE3), purified (TALON cobalt IMAC); not shown: His4, C-terminal, kept) MSIAVGMIETLGFPAVVEAADSMVKAARVTLVGYEKIGSGRVTVIVRGDVSEVQASVTAGIENIRRVNGGEVLSNHIIARPHENLEYVLPIRYTEAVEQFREIVNPSIIRR | 6

Biological target: the molecule itself
Test: native MS; nano-ESI Q-ToF, positive ion mode, 150 mM ammonium acetate pH 8, soft ionization; tandem MS/MS (CID) of hexamer ions gives monomers and pentamers; oligomer of the protein with itself

Protein | stoichiometry N
CcmK4 from Synechocystis sp. PCC6803, TEV-proteolysis product of ^HT-K4 (^-K4) (natural protein, UniProt P73407 1-112, looked up, CcmK4, Synechocystis sp; PCC6803, full-length gene, codon-optimized for E. coli; also called Syn6803 -K4; source: E. coli BL21 (DE3), purified (TALON cobalt IMAC), tag removed with turbo TEV protease; not shown: His4, N-terminal, cleaved) MSAQSAVGSIETIGFPGILAAADAMVKAGRITIVGYIRAGSARFTLNIRGDVQEVKTAMAAGIDAINRTEGADVKTWVIIPRPHENVVAVLPIDFSPEVEPFREAAEGLNRR | 6
CcmK4 from Synechocystis sp. PCC6803, TEV-proteolysis product of K4^-TH (K4^-) (natural protein, UniProt P73407 1-112, looked up, CcmK4, Synechocystis sp; PCC6803, full-length gene, codon-optimized for E. coli; Sample partly degraded by proteolysis (species of similar but not identical mass in native MS); Measured mass indicated loss of the first Met residue; also called Syn6803 K4^-; source: E. coli BL21 (DE3), purified (TALON cobalt IMAC), tag removed with turbo TEV protease; not shown: His4, C-terminal, cleaved) MSAQSAVGSIETIGFPGILAAADAMVKAGRITIVGYIRAGSARFTLNIRGDVQEVKTAMAAGIDAINRTEGADVKTWVIIPRPHENVVAVLPIDFSPEVEPFREAAEGLNRR | 6
CcmK2 from Synechococcus elongatus PCC 7942 with C-terminal His6 tag (K2^-H Syn7942) (natural protein, Synechococcus elongatus PCC7942, UniProt Q03511 1-102, looked up, also called K2^-H 7942; Syn7942 K2^-H; source: E. coli BL21 (DE3), purified (TALON cobalt IMAC); not shown: His6, C-terminal, kept) MPIAVGMIETLGFPAVVEAADAMVKAARVTLVGYEKIGSGRVTVIVRGDVSEVQASVSAGLDSAKRVAGGEVLSHHIIARPHENLEYVLPIRYTEAVEQFRM | 6
CcmK1 from Synechocystis sp. PCC6803, TEV-proteolysis product of K1^-TH (K1^-) (natural protein, UniProt P72760 1-111, looked up, CcmK1, Synechocystis sp; PCC6803, full-length gene, codon-optimized for E. coli; Measured mass indicated loss of the first Met residue; also called untagged K1^- 6803; Syn6803 K1^-; source: E. coli BL21 (DE3), purified (TALON cobalt IMAC), tag removed with turbo TEV protease; not shown: His4, C-terminal, cleaved) MSIAVGMIETLGFPAVVEAADSMVKAARVTLVGYEKIGSGRVTVIVRGDVSEVQASVTAGIENIRRVNGGEVLSNHIIARPHENLEYVLPIRYTEAVEQFREIVNPSIIRR | 6
